Measured values as given in patent publication US20140087995A1 (published 2014).
Numbered stars: 1 amine (or outer) side, 2 acyl side, 3 side chain; on linkers, the order of the positions; unused ones are H or OH. Bridge positions count the residues as written; N and C are the ends. * marks the point of attachment. C20 diacid = O=C(O)CCCCCCCCCCCCCCCCCCC(=O)*; γGlu = O=C(O)[C@H](CCC(=O)[*:2])N[*:1]

T1: rat calcitonin receptor (rat, UniProt P32214 25-516)
T1 construct: whole, on cells; Used as membranes prepared from the transfected cells; also called rCTR; rat calcitonin (a) receptor
T1 sequence (looked up): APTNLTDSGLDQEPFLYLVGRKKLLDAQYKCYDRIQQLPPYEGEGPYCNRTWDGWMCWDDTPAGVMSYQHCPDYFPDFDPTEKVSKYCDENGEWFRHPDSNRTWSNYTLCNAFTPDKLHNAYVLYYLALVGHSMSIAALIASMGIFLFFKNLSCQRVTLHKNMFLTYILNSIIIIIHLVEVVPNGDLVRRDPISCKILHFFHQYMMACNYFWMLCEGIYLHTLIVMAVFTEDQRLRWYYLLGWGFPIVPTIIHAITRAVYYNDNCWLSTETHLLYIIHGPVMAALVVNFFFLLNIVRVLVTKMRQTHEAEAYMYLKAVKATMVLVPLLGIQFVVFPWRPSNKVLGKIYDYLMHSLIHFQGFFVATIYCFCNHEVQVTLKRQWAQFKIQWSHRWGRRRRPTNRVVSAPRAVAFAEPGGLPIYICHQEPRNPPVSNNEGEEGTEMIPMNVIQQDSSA

T2: rat amylin receptor (rat calcitonin receptor + rat RAMP 3) (rat, UniProt P32214 25-516; Q9JJ73 23-147)
T2 construct: whole, on cells; Used as membranes prepared from the transfected cells; also called rAmylin-R; rat amylin 3(a) receptor
T2 sequence (looked up) 1: T1 sequence (looked up)
T2 sequence (looked up) 2: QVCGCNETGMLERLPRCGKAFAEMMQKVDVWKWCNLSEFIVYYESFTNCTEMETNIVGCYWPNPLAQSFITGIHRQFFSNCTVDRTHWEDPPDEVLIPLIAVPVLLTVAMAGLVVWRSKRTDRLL

T3: human calcitonin receptor (human, UniProt P30988 25-474)
T3 construct: whole, on cells; Used as membranes prepared from the transfected cells (Assay VII); also called hCTR; hCT
T3 sequence (looked up): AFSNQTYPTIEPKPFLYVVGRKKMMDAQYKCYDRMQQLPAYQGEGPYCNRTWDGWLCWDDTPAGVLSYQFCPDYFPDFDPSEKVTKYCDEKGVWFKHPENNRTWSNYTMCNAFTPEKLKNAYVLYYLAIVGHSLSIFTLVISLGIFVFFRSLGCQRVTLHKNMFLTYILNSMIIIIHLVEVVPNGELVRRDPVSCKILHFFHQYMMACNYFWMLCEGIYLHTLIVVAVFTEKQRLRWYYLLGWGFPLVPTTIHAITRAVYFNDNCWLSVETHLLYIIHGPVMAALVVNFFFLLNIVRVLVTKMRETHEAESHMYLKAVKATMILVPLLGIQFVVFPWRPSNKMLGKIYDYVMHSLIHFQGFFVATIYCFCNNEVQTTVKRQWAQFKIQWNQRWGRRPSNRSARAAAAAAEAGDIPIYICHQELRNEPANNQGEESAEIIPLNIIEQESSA

B1: N^α1-[(4S)-4-carboxy-4-(19-carboxynonadecanoylamino)butanoyl]-[Glu14,Arg17,Pro21,Pro27,Pro34]-h-amylin (peptide)
peptide: {C20 diacid-γGlu}-KCNTATCATQRLAEFLRHSSPNFGAIPSSTNVGPNTY-NH2
modifications: disulfide 2-7
SMILES: CC[C@H](C)[C@H](NC(=O)[C@H](C)NC(=O)CNC(=O)[C@H](Cc1ccccc1)NC(=O)[C@H](CC(N)=O)NC(=O)[C@@H]1CCCN1C(=O)[C@H](CO)NC(=O)[C@H](CO)NC(=O)[C@H](Cc1c[nH]cn1)NC(=O)[C@H](CCCNC(=N)N)NC(=O)[C@H](CC(C)C)NC(=O)[C@H](Cc1ccccc1)NC(=O)[C@H](CCC(=O)O)NC(=O)[C@H](C)NC(=O)[C@H](CC(C)C)NC(=O)[C@H](CCCNC(=N)N)NC(=O)[C@H](CCC(N)=O)NC(=O)[C@@H](NC(=O)[C@H](C)NC(=O)[C@@H]1CSSC[C@H](NC(=O)[C@H](CCCCN)NC(=O)CC[C@H](NC(=O)CCCCCCCCCCCCCCCCCCC(=O)O)C(=O)O)C(=O)N[C@@H](CC(N)=O)C(=O)N[C@@H]([C@@H](C)O)C(=O)N[C@@H](C)C(=O)N[C@@H]([C@@H](C)O)C(=O)N1)[C@@H](C)O)C(=O)N1CCC[C@H]1C(=O)N[C@@H](CO)C(=O)N[C@@H](CO)C(=O)N[C@H](C(=O)N[C@@H](CC(N)=O)C(=O)N[C@H](C(=O)NCC(=O)N1CCC[C@H]1C(=O)N[C@@H](CC(N)=O)C(=O)N[C@H](C(=O)N[C@@H](Cc1ccc(O)cc1)C(N)=O)[C@@H](C)O)C(C)C)[C@@H](C)O
notes: Derivative of human amylin; also called compound 32
B2: N^α1-[(4S)-4-carboxy-4-(19-carboxynonadecanoylamino)butanoyl]-[Glu14,Arg17,Pro21,Pro28,Glu35]-h-amylin (peptide)
peptide: {C20 diacid-γGlu}-KCNTATCATQRLAEFLRHSSPNFGAILPSTNVGSETY-NH2
modifications: disulfide 2-7
SMILES: CC[C@H](C)[C@H](NC(=O)[C@H](C)NC(=O)CNC(=O)[C@H](Cc1ccccc1)NC(=O)[C@H](CC(N)=O)NC(=O)[C@@H]1CCCN1C(=O)[C@H](CO)NC(=O)[C@H](CO)NC(=O)[C@H](Cc1c[nH]cn1)NC(=O)[C@H](CCCNC(=N)N)NC(=O)[C@H](CC(C)C)NC(=O)[C@H](Cc1ccccc1)NC(=O)[C@H](CCC(=O)O)NC(=O)[C@H](C)NC(=O)[C@H](CC(C)C)NC(=O)[C@H](CCCNC(=N)N)NC(=O)[C@H](CCC(N)=O)NC(=O)[C@@H](NC(=O)[C@H](C)NC(=O)[C@@H]1CSSC[C@H](NC(=O)[C@H](CCCCN)NC(=O)CC[C@H](NC(=O)CCCCCCCCCCCCCCCCCCC(=O)O)C(=O)O)C(=O)N[C@@H](CC(N)=O)C(=O)N[C@@H]([C@@H](C)O)C(=O)N[C@@H](C)C(=O)N[C@@H]([C@@H](C)O)C(=O)N1)[C@@H](C)O)C(=O)N[C@@H](CC(C)C)C(=O)N1CCC[C@H]1C(=O)N[C@@H](CO)C(=O)N[C@H](C(=O)N[C@@H](CC(N)=O)C(=O)N[C@H](C(=O)NCC(=O)N[C@@H](CO)C(=O)N[C@@H](CCC(=O)O)C(=O)N[C@H](C(=O)N[C@@H](Cc1ccc(O)cc1)C(N)=O)[C@@H](C)O)C(C)C)[C@@H](C)O
notes: Derivative of human amylin; also called compound 33

Experiments:
rat calcitonin receptor [1] = target: T1, rat calcitonin receptor; test: SPA competition with 125I-calcitonin, membranes of BHK cells with rat calcitonin receptor (Assay VIII)
rat calcitonin receptor [2] = target: T1, rat calcitonin receptor; test: ratio IC50 rat calcitonin receptor / IC50 rat amylin receptor (Assays VIII and VI)
[3] = target: T2, rat amylin receptor (rat calcitonin …); test: SPA competition with 125I-rat amylin, membranes of BHK cells with rat calcitonin receptor + rat RAMP3 (Assay VI)
[4] = target: T3, human calcitonin receptor; test: ratio IC50 human calcitonin receptor / IC50 human amylin receptor (Assays VII and V)
Method in brief: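 Competition binding by SPA uses membrane preparations (35 ng/μL final) in pH 7.4 Hepes buffer with 1 mM CaCl2 and 5 mM MgCl₂. Incubation lasts 120 min at 25° C, and IC₅₀ comes from one-site fitting.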

Binder | IC50 (rat calcitonin receptor [1]) [nM] | Ratio rCT/rAmylin binding (rat calcitonin receptor [2]) | IC50 [3] [nM] | Ratio hCT/hAmylin binding [4]
B1 | 5.98 | 34 | 0.176 | 10.9
B2 | 28.9 | 12.6 | 2.29 | 3.9
